Source: US20200055939A1 (Genentech, published 2020)
Positions count from the first letter of the chain named.

T1: MICA.008.a3.R202-S297.R202N mIgG2a.Glyco11 (human; mouse, UniProt Q29983 203-297, engineered N-linked glycosylation site R202N)
T1 construct: not shown: murine IgG2a Fc
T1 chain: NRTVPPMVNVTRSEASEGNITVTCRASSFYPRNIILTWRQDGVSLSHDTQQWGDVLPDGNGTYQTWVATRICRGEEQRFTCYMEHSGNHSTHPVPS

T2: MICA.008.a3.T204-S297.E215N.mIgG2a.Glyco12 (human; mouse, UniProt Q29983 204-297, engineered N-linked glycosylation site E215N)
T2 construct: not shown: murine IgG2a Fc
T2 chain: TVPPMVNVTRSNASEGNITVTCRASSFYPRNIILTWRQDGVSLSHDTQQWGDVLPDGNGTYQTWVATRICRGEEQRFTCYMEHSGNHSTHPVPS

T3: MICA.008.a3.T204-S297.I236T.mIgG2a.Glyco13 (human; mouse, UniProt Q29983 204-297, engineered N-linked glycosylation site created by I236T)
T3 construct: not shown: murine IgG2a Fc
T3 chain: T2 chain with N12E, I33T

T4: MICA.008.a3.T204-S297.G243N.mIgG2a.Glyco14 (human; mouse, UniProt Q29983 204-297, engineered N-linked glycosylation site G243N)
T4 construct: not shown: murine IgG2a Fc
T4 chain: T2 chain with N12E, G40N

T5: MICA.008.a3.T204-S297.H248N.mIgG2a.Glyco15 (human; mouse, UniProt Q29983 204-297, engineered N-linked glycosylation site H248N)
T5 construct: not shown: murine IgG2a Fc
T5 chain: T2 chain with N12E, H45N

T6: MICA.008.a3.T204-S297.R279N.mIgG2a.Glyco16 (human; mouse, UniProt Q29983 204-297, engineered N-linked glycosylation site R279N)
T6 construct: not shown: murine IgG2a Fc
T6 chain: T2 chain with N12E, R76N

T7: MICA.008.a3.T204-S297.C-terminal insert of N298.G299.S300.mIgG2a.Glyco17 (human; mouse, UniProt Q29983 204-297, engineered N-linked glycosylation site at inserted N298)
T7 construct: not shown: murine IgG2a Fc
T7 chain: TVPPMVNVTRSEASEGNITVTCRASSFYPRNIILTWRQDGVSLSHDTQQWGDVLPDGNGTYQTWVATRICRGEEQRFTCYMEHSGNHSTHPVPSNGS

T8: MICA008.His (human MICA*008 alpha 3 domain, His tagged) (human)
T8 construct: Also used for FPOP (expressed in CHO); also called huMICA*008 alpha 3-his; MICA*008 a3
T8 chain: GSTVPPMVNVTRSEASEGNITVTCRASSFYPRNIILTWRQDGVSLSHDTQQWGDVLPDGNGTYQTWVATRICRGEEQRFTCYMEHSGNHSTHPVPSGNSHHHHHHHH

T9: MICA002.His (human MICA*002 alpha 3 domain, His tagged) (human)
T9 construct: also called huMICA*002 alpha 3-his
T9 chain: T8 chain with S28G, R32W, I35T, T37S, R73Q

T10: MICA004.His (human MICA*004 alpha 3 domain, His tagged) (human)
T10 construct: also called huMICA*004 alpha 3-his
T10 chain: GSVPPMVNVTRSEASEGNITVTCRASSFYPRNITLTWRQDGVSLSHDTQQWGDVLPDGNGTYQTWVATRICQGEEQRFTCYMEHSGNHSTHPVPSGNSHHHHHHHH

T11: MICB005.His (human MICB*005 alpha 3 domain, His tagged) (human)
T11 construct: also called huMICB*005 alpha 3-his
T11 chain: T8 chain with R12C, A15V, I35T, D48N, C72R, R73Q, S90G

T12: MICA*008 on MEL-JUSO cells (human, UniProt Q29983 24-317)
T12 chain: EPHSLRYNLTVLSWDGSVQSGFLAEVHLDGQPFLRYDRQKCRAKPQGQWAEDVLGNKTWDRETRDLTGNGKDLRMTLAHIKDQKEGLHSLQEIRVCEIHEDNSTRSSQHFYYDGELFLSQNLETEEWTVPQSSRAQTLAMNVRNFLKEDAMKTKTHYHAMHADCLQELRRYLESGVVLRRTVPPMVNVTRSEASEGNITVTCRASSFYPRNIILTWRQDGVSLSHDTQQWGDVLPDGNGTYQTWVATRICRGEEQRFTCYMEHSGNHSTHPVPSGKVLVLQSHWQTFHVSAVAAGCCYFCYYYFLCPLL

T13: MICB*005 on HCC1534 cells (human, UniProt Q29980 23-383)
T13 sequence (looked up): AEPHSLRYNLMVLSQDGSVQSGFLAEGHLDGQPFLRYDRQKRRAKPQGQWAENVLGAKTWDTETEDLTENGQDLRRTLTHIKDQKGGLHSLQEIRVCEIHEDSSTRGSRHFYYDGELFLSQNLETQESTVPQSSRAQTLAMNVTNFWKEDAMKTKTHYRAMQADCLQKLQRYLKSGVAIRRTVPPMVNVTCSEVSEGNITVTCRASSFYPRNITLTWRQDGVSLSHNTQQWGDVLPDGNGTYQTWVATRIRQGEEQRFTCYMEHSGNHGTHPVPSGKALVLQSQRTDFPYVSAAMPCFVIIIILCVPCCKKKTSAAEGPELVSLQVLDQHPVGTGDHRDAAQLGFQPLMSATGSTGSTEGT

B1: 12H10 (antibody, V domains shown)
VH: DVQLQESGPGLVKPSQPLSLTCTVTGYSITSNYAWNWIRQFPGDKLEWMGYISSSGITKSNPSLKSRISITRDTSKNQFFLQLNSLTTEDTATYYCSRWSNWSFDVWGAGTTVTVSS
VL: DIQMTQTPSSLSVSLGDRVTINCRASQDIHNYFNWYQQKPDGTIKLLIYYTSRFHSGVPSRFSGSGSGTDYSLTISNLEEEDIATYFCQQGNSLPPTFGGGTKLEIK
notes: Mouse variable domains; constant regions differ by assay
B2: 32D2 (antibody, V domains shown)
VH: DVHLVESGGGLVQPGGSRKLSCAASGFTFNTFGMNWVRQAPEKGLEWVAYINSGSNTIYYADTVKGRFTISRDNPKNTLFLQMTSLRSEDTAMYYCTRWEPVTGGFSYWGQGTLVTVSA
VL: QIVLTQSPAFKSSSLGERVTMTCTASSSISSSYLHWYQQKPGSSPKLWIYTTSNLASGVPARFSGSGSGTSYSLTISTMEAEDAATYYCHQHHRSPFTFGSGTKVEIK
notes: Mouse hybridoma antibody; constant regions differ by assay
B3: 15F11 (antibody, V domains shown)
VH: EIQLQQSGPELVKPGASVRVSCKPSGYAFTSNNIYWVKQSRRKSLEWIGYIDPYIGRIIYNQQFKDKATLTVDKSSSTAYMHLNSLTSEDSAVYYCSRSGERSNFDYWGQGTTLTVSS
VL: EIVLTQSPTAMAASPGEKITITCSASSSISSNYLHWYQQKPGFSPKLLIYRTSNLASGVPARFSGSGSGTSYSLTIGPMEAEDVATYYCQQGGSLPLTFGAGTKVEIK
notes: as for B1
B4: 18G3 (antibody, V domains shown)
VH: VQLQESGPGLVKPSQSLSLTCNVTGYSITGDYAWNWIRQFPGNKLEWIGYIGYTGSTTYNPSLKSRVSITRDTSKNQFFLQLNSVTPEDTATYYCARWRNWAMDYWGLGTSVTVSS
VL: DIQMTQTPSSLSASLGDRVTISCRANQDISHYLNWYQQKPDGAVKLLIYYTSRIHSGVPSRFSGSGSGTDYSLTIANLEQEDVATYFCQQGNTPPTTFGGGTKVEIK
notes: as for B1
B5: 20G11 (antibody, V domains shown)
VH: DVQLVESGGGLVQPGGSRKLSCAASGFTFSTFGIHWVRQAPEKGLEWVAYISYDSRTIYYADTVKGRFTISRDNPKNTLFLQMTSLRSEDTAMYYCARWAYEGGVNYFDNWGQGTTLTVSS
VL: QIVLTQSPAIMSASLGERVTMTCTATSGVSSSYLHWYQQKPGSSPKLWIYSSSNLASGVPARFSGSGSGTSYSLTIGSMEAEDAATYYCHQFHRSPLTFGTGTKVEIK
notes: as for B2

Molecular target: T1, MICA.008.a3.R202-S297.R202N …
Assay: ELISA, coated variant;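 further: ELISA with plates coated at 2 ug/ml with MICA*008 alpha 3 glycosylation variants as murine IgG2a Fc fusions, antibody binding detected by HRP anti-human IgG Fc and TMB absorbance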
Protocol: (§1) Hybridoma derived clones binding to all four MICA/B alleles alpha 3 domains were tested by ELISA for binding to the MICA*008 alpha 3 glycosylation variants fused to murine IgG2a Fc fusion. Nunc maxisorp plates were coated with 2 ug/ml of glycosylation variants as previously described. Cloned and recombinantly expressed hybridoma monoclonal antibodies were added to the plates after blocking with a 1X PBS buffer containing 0.5% BSA and 0.05% Tween 20. After incubation, plates were washed multiple times with wash buffer (1X PBS containing 0.05% Tween 20) and secondary antibody (goat anti-human IgG Fc conjugated to HRP) was added. Plates were then washed multiple times with wash buffer again before adding either BioFX TMB Microwell 1 Component Peroxidase or tetramethylbenzidine (TMB) substrate (KPL; Gaithersburg, Md.). After several minutes of incubation, the reaction was stopped with BioFX stop solution or 1 N solution of HCl, respectively. Plates were read on a Spectra MAX 340 plate reader at either 630 or 450 nm respectively (Molecular Devices; Sunnyvale, Calif.).

| binding result | Binder |
| --- | --- |
| binds | B1 |
| binds | B2 |
| binds | B3 |
| binds | B4 |
| binds | B5 |

Molecular target: T2, MICA.008.a3.T204-S297.E215N.mIgG2a.Glyco …
Assay: ELISA, coated variant;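 further: ELISA with plates coated at 2 ug/ml with MICA*008 alpha 3 glycosylation variants as murine IgG2a Fc fusions, antibody binding detected by HRP anti-human IgG Fc and TMB absorbance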
Protocol: as §1

| binding result | Binder |
| --- | --- |
| binds | B1 |
| binds | B2 |
| binds | B3 |
| binds | B4 |
| binds | B5 |

Molecular target: T3, MICA.008.a3.T204-S297.I236T.mIgG2a.Glyco …
Assay: ELISA, coated variant;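 further: ELISA with plates coated at 2 ug/ml with MICA*008 alpha 3 glycosylation variants as murine IgG2a Fc fusions, antibody binding detected by HRP anti-human IgG Fc and TMB absorbance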
Protocol: as §1

| binding result | Binder |
| --- | --- |
| binds | B1 |
| binds | B2 |
| binds | B3 |
| binds | B4 |
| binds | B5 |

Molecular target: T4, MICA.008.a3.T204-S297.G243N.mIgG2a.Glyco …
Assay: ELISA, coated variant;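 further: ELISA with plates coated at 2 ug/ml with MICA*008 alpha 3 glycosylation variants as murine IgG2a Fc fusions, antibody binding detected by HRP anti-human IgG Fc and TMB absorbance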
Protocol: as §1

| binding result | Binder |
| --- | --- |
| binds | B5 |

Molecular target: T5, MICA.008.a3.T204-S297.H248N.mIgG2a.Glyco …
Assay: ELISA, coated variant
Protocol: as §1

| binding result | Binder |
| --- | --- |
| binds | B1 |
| binds | B2 |
| binds | B3 |
| binds | B4 |
| binds | B5 |

Molecular target: T6, MICA.008.a3.T204-S297.R279N.mIgG2a.Glyco …
Assay: ELISA, coated variant
Protocol: as §1

| binding result | Binder |
| --- | --- |
| binds | B1 |
| binds | B4 |

Molecular target: T7, MICA.008.a3.T204-S297.C-terminal insert …
Assay: ELISA, coated variant
Protocol: as §1

| binding result | Binder |
| --- | --- |
| binds | B1 |
| binds | B2 |
| binds | B3 |
| binds | B4 |
| binds | B5 |

Molecular target: T8, MICA008.His (human MICA*008 alpha 3 …)
Assay: SPR, antibody captured;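 further: SPR with antibody held by surface-bound anti-Fc while His-tagged alpha three domains flow over, Kd derived by fitting a one-to-one binding model to sensograms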

| Kd | Binder |
| --- | --- |
| 1.48 nM | B1 |
| 1.94 nM | B2 |
| 1.02 nM | B3 |
| 2.03 nM | B4 |
| 0.77 nM | B5 |

Molecular target: T9, MICA002.His (human MICA*002 alpha 3 …)
Assay: SPR, antibody captured;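 further: SPR with antibody held by surface-bound anti-Fc while His-tagged alpha three domains flow over, Kd derived by fitting a one-to-one binding model to sensograms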

| Kd | Binder |
| --- | --- |
| 25.8 nM | B1 |
| 3.18 nM | B2 |
| 3.05 nM | B3 |
| 10.4 nM | B4 |
| 1.76 nM | B5 |

Molecular target: T10, MICA004.His (human MICA*004 alpha 3 …)
Assay: SPR, antibody captured;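 further: SPR with antibody held by surface-bound anti-Fc while His-tagged alpha three domains flow over, Kd derived by fitting a one-to-one binding model to sensograms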

| Kd | Binder |
| --- | --- |
| 7.02 nM | B1 |
| 2.85 nM | B2 |
| 1.22 nM | B3 |
| 4.03 nM | B4 |
| 1.06 nM | B5 |

Molecular target: T11, MICB005.His (human MICB*005 alpha 3 …)
Assay: SPR, antibody captured;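 further: SPR with antibody held by surface-bound anti-Fc while His-tagged alpha three domains flow over, Kd derived by fitting a one-to-one binding model to sensograms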

| Kd | Binder |
| --- | --- |
| 10.7 nM | B1 |
| 2.82 nM | B2 |
| 3.28 nM | B3 |
| 6.18 nM | B4 |
| 1.05 nM | B5 |

Molecular target: T12, MICA*008 on MEL-JUSO cells
Assay: cell-based or functional assay

| % max inhibition of shedding | EC50 of shedding inhibition | Binder |
| --- | --- | --- |
| 81% | 0.0103 µg/mL | B1 |
| 71% | 0.0303 µg/mL | B2 |
| 74% | 0.0165 µg/mL | B3 |
| 75% | 0.0191 µg/mL | B4 |
| 70% | 0.0285 µg/mL | B5 |

The binders below were run against T14, MICA*004 on HCC1534 cells (human, UniProt Q29983 24-383) (assay: cell-based or functional assay).

| % max inhibition of shedding | EC50 of shedding inhibition | Binder |
| --- | --- | --- |
| 76% | 0.0689 µg/mL | B1 |
| 76% | 0.0592 µg/mL | B2 |
| 86% | 0.0485 µg/mL | B3 |
| 74% | 0.012 µg/mL | B4 |
| 69% | 0.123 µg/mL | B5 |

The binders below were run against T13, MICB*005 on HCC1534 cells (assay: cell-based or functional assay).

| % max inhibition of shedding | EC50 of shedding inhibition | Binder |
| --- | --- | --- |
| 54% | 0.139 µg/mL | B1 |
| 54% | 0.0781 µg/mL | B2 |
| 59% | 0.0736 µg/mL | B3 |
| 48% | 0.0124 µg/mL | B4 |
| 51% | 0.0169 µg/mL | B5 |

Molecular target: T12, MICA*008 on MEL-JUSO cells
Assay: cell-based or functional assay
Remark: another data set of the same source

| EC50 of shedding inhibition | Max % Inhibition of shedding | Binder |
| --- | --- | --- |
| 0.0255 µg/mL | 73% | B3 |

Molecular target: T14, MICA*004 on HCC1534 cells
Assay: cell-based or functional assay
Remark: another data set of the same source

| EC50 of shedding inhibition | Max % Inhibition of shedding | Binder |
| --- | --- | --- |
| 0.0375 µg/mL | 64% | B3 |

Molecular target: T13, MICB*005 on HCC1534 cells
Assay: cell-based or functional assay
Remark: another data set of the same source

| EC50 of shedding inhibition | Max % Inhibition of shedding | Binder |
| --- | --- | --- |
| 0.102 µg/mL | 60% | B3 |

Each binder was assayed against MICA*002 on cells (PANC-1; B16-MICA002) (human, UniProt Q29983 24-383) (assay: cell-based or functional assay).

| EC50 of shedding inhibition | Max % Inhibition of shedding | Binder |
| --- | --- | --- |
| 0.0752 µg/mL | 54% | B3 |

Molecular target: T8, MICA008.His (human MICA*008 alpha 3 …)
Assay: SPR (Biacore), MICA*008 alpha-3 domain

| Kd | Binder |
| --- | --- |
| 1.9 nM | B1 |
| 4 nM | B2 |
| 2.6 nM | B4 |
| 3.8 nM | B5 |
